The supplement of paper PMC10567573

B1: CCND1 (parent)
chain: IRRAYPDANLLNDRVLRAMLKAEE

Variants of: B1
Experiment: protein stability index of a GFP-peptide fusion (GPS, HEK-293T) (PSI 1-6); higher = more stable
Details: c terminus: a fixed tail appended
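Also: lentivirally expressed fusions sorted by FACS into six bins by GFP to DsRed ratio, PSI derived from sequencing read proportions per bin multiplied by bin number.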

Row | Variant | protein stability index
1 | IRRAYPDANLLNDRVLRATLKAEE | 3.38
2 | IRRAYPDANLLNDRVLRAWLKAEE | 3.96
3 | IRRAYPDANLLNDRVLRAVLKAEE | 3.61
4 | IRRAYPDANLLNDRVLRAELKAEE | 3
5 | IRRAYPDANLLNDRVLRAHLKAEE | 3.54
6 | IRRAYPDANLLNDRVLRARLKAEE | 3.15
7 | IRRAYPDANLLNDRVLRADLKAEE | 4.26
8 | IRRAYPDANLLNDRVLRAKLKAEE | 3.92
9 | IRRAYPDANLLNDRVLRAALKAEE | 3
10 | IRRAYPDANLLNDRVLRACLKAEE | 3.48
11 | IRRAYPDANLLNDRVLRAPLKAEE | 3.79
12 | IRRAYPDANLLNDRVLRAFLKAEE | 3.26
13 | IRRAYPDANLLNDRVLRANLKAEE | 4.92
14 | IRRAYPDANLLNDRVLRAQLKAEE | 3.52
15 | IRRAYPDANLLRDRVLRAMLKAEE | 2.73
16 | IRRAYPDANLLPDRVLRAMLKAEE | 1.84
17 | IRRAYPDANLLWDRVLRAMLKAEE | 2.19
18 | IRRAYPDANLLSDRVLRAMLKAEE | 2.11
19 | IRRAYPDANLLDDRVLRAMLKAEE | 2.87
20 | IRRAYPDANLLKDRVLRAMLKAEE | 2.15
21 | IRRAYPDANLLCDRVLRAMLKAEE | 2.51
22 | IRRAYPDANLLQDRVLRAMLKAEE | 2.39
23 | IRRAYPDANLLGDRVLRAMLKAEE | 3.05
24 | IRRAYPDANLLEDRVLRAMLKAEE | 3.41

Row | Variant | protein stability index
25 | IRRAYPDANLLHDRVLRAMLKAEE | 2.5
26 | IRRAYPDANLLADRVLRAMLKAEE | 3.21
27 | IRRAYPDANLLYDRVLRAMLKAEE | 2.52
28 | IRRAYPDANLLFDRVLRAMLKAEE | 1.9
29 | IRRAYPDANLLNDMVLRAMLKAEE | 2.81
30 | IRRAYPDANLLNDKVLRAMLKAEE | 1.83
31 | IRRAYPDANLLNDDVLRAMLKAEE | 1.56
32 | IRRAYPDANLLNDHVLRAMLKAEE | 1.74
33 | IRRAYPDANLLNDTVLRAMLKAEE | 3.07
34 | IRRAYPDANLLNDCVLRAMLKAEE | 2.41
35 | IRRAYPDANLLNDEVLRAMLKAEE | 2.84
36 | IRRAYPDANLLNDGVLRAMLKAEE | 1.96
37 | IRRAYPDANLLNDFVLRAMLKAEE | 2.56
38 | IRRAYPDANLLNDQVLRAMLKAEE | 2.29
39 | IRRAYPDANLLNDIVLRAMLKAEE | 1.03
40 | IRRAYPDANLLNDLVLRAMLKAEE | 1.99
41 | IRRAYPDANLLNDAVLRAMLKAEE | 2.3
42 | IRRAYPDANLLNDYVLRAMLKAEE | 1.84
43 | IRRAYPDANLLNDRVLPAMLKAEE | 3.46
44 | IRRAYPDANLLNDRVLMAMLKAEE | 3.21
45 | IRRAYPDANLLNDRVLSAMLKAEE | 2.72
46 | IRRAYPDANLLNDRVLEAMLKAEE | 2.22
47 | IRRAYPDANLLNDRVLYAMLKAEE | 3.4
48 | IRRAYPDANLLNDRVLTAMLKAEE | 3.47

Row | Variant | protein stability index
49 | IRRAYPDANLLNDRVLFAMLKAEE | 2.1
50 | IRRAYPDANLLNDRVLWAMLKAEE | 1.74
51 | IRRAYPDANLLNDRVLLAMLKAEE | 3.01
52 | IRRAYPDANLLNDRVLVAMLKAEE | 1.72
53 | IRRAYPDANLLNDRVLIAMLKAEE | 1.82
54 | IRRAYPDANLLNDRVLDAMLKAEE | 2.12
55 | IRRAYPDANLLNDRVLCAMLKAEE | 2.46
56 | IRRAYPDANLLNDRVLNAMLKAEE | 2.61
57 | IRRAYPDANLLNDRVLHAMLKAEE | 2.31
58 | IRRAYPDANLLNDRVLQAMLKAEE | 2.68
59 | IRRAYPDANLLNDRVLRAMLLAEE | 3.01
60 | IRRAYPDANLLNDRVLRAMLSAEE | 2.72
61 | IRRAYPDANLLNDRVLRAMLIAEE | 2.38
62 | IRRAYPDANLLNDRVLRAMLCAEE | 3.33
63 | IRRAYPDANLLNDRVLRAMLFAEE | 1.47
64 | IRRAYPDANLLNDRVLRAMLWAEE | 1.83
65 | IRRAYPDANLLNDRVLRAMLQAEE | 1.89
66 | IRRAYPDANLLNDRVLRAMLEAEE | 2.73
67 | IRRAYPDANLLNDRVLRAMLRAEE | 2.79
68 | IRRAYPDANLLNDRVLRAMLNAEE | 3.04
69 | IRRAYPDANLLNDRVLRAMLVAEE | 2.93
70 | IRRAYPDANLLNDRVLRAMLTAEE | 3.33
71 | IRRAYPDANLLNDRVLRAMLAAEE | 2.35
72 | IRRAYPDANLLNDRVLRAMLHAEE | 2.56

Row | Variant | protein stability index
73 | IRRAYPDANLLNDRVLRAMLGAEE | 2.52
74 | IRRAYPDANLLNDRVLRAMLMAEE | 1.76
75 | IRRAYPDANLLNDRVLRAMLPAEE | 3.85
76 | IRRAYPDANSLNDRVLRAMLKAEE | 2.14
77 | IRRAYPDANYLNDRVLRAMLKAEE | 3.34
78 | IRRAYPDANPLNDRVLRAMLKAEE | 2.63
79 | IRRAYPDANDLNDRVLRAMLKAEE | 3.97
80 | IRRAYPDANILNDRVLRAMLKAEE | 1.22
81 | IRRAYPDANWLNDRVLRAMLKAEE | 2.02
82 | IRRAYPDANFLNDRVLRAMLKAEE | 2.52
83 | IRRAYPDANTLNDRVLRAMLKAEE | 3.13
84 | IRRAYPDANHLNDRVLRAMLKAEE | 2.94
85 | IRRAYPDANVLNDRVLRAMLKAEE | 2.49
86 | IRRAYPDANNLNDRVLRAMLKAEE | 3.58
87 | IRRAYPDANRLNDRVLRAMLKAEE | 3.08
88 | IRRAYPDANALNDRVLRAMLKAEE | 2.48
89 | IRRAYPDANQLNDRVLRAMLKAEE | 3.38
90 | IRRAYPDANKLNDRVLRAMLKAEE | 3.23
91 | IRRAYPDANLLNDRELRAMLKAEE | 3.12
92 | IRRAYPDANLLNDRHLRAMLKAEE | 4.36
93 | IRRAYPDANLLNDRALRAMLKAEE | 3.31
94 | IRRAYPDANLLNDRGLRAMLKAEE | 3.37
95 | IRRAYPDANLLNDRSLRAMLKAEE | 3.27
96 | IRRAYPDANLLNDRNLRAMLKAEE | 3.25

Row | Variant | protein stability index
97 | IRRAYPDANLLNDRILRAMLKAEE | 1.99
98 | IRRAYPDANLLNDRTLRAMLKAEE | 3.33
99 | IRRAYPDANLLNDRDLRAMLKAEE | 3.5
100 | IRRAYPDANLLNDRPLRAMLKAEE | 3.51
101 | IRRAYPDANLLNDRRLRAMLKAEE | 3.57
102 | IRRAYPDANLLNDRWLRAMLKAEE | 3.47
103 | IRRAYPDANLLNDRCLRAMLKAEE | 2.61
104 | IRRAYPDANLLNDRLLRAMLKAEE | 1.9
105 | IRRAYPDANLLNDRQLRAMLKAEE | 4.11
106 | IRRAYPDANLLNDRMLRAMLKAEE | 1.9
107 | IRRAYPDANLLNDRFLRAMLKAEE | 2.41
108 | IRRAYPDANLLNDRVERAMLKAEE | 4.28
109 | IRRAYPDANLLNDRVPRAMLKAEE | 4.08
110 | IRRAYPDANLLNDRVQRAMLKAEE | 3.53
111 | IRRAYPDANLLNDRVHRAMLKAEE | 3.38
112 | IRRAYPDANLLNDRVKRAMLKAEE | 3.67
113 | IRRAYPDANLLNDRVSRAMLKAEE | 4.52
114 | IRRAYPDANLLNDRVARAMLKAEE | 3.43
115 | IRRAYPDANLLNDRVNRAMLKAEE | 3.65
116 | IRRAYPDANLLNDRVGRAMLKAEE | 2.99
117 | IRRAYPDANLLNDRVYRAMLKAEE | 3.66
118 | IRRAYPDANLLNDRVIRAMLKAEE | 2.85
119 | IRRAYPDANLLNDRVVRAMLKAEE | 2.94
120 | IRRAYPDANLLNDRVLRAMLKDEE | 2.73

Row | Variant | protein stability index
121 | IRRAYPDANLLNDRVLRAMLKFEE | 1.92
122 | IRRAYPDANLLNDRVLRAMLKHEE | 2.8
123 | IRRAYPDANLLNDRVLRAMLKIEE | 2.1
124 | IRRAYPDANLLNDRVLRAMLKKEE | 3.27
125 | IRRAYPDANLLNDRVLRAMLKEEE | 3.08
126 | IRRAYPDANLLNDRVLRMMLKAEE | 1.8
127 | IRRAYPDANLLNDRVLRGMLKAEE | 3.77
128 | IRRAYPDANLLNDRVLRKMLKAEE | 3.02
129 | IRRAYPDANLLNDRVLRPMLKAEE | 2.29
130 | IRRAYPDANLLNDRVLRRMLKAEE | 3.23
131 | IRRAYPDANLLNDRVLRSMLKAEE | 3.66
132 | IRRAYPDANLLNDRVLRQMLKAEE | 3.94
133 | IRRAYPDANLLNDRVLRHMLKAEE | 3.17
134 | IRRAYPDANLLNDRVLRIMLKAEE | 2.36
135 | IRRAYPDANLLNDRVLRTMLKAEE | 3.58
136 | IRRAYPDANLLNDRVLRNMLKAEE | 3.06
137 | IRRAYPDANLLNDRVLRCMLKAEE | 2.33
138 | IRRAYPDANLLNDRVLRWMLKAEE | 2.3
139 | IRRAYPDANLLNDRVLRLMLKAEE | 1.31
140 | IRRAYPDANLLNRRVLRAMLKAEE | 3.68
141 | IRRAYPDANLLNCRVLRAMLKAEE | 2.72
142 | IRRAYPDANLLNMRVLRAMLKAEE | 2.66
143 | IRRAYPDANLLNSRVLRAMLKAEE | 2.37
144 | IRRAYPDANLLNPRVLRAMLKAEE | 2.61

Row | Variant | protein stability index
145 | IRRAYPDANLLNIRVLRAMLKAEE | 2.91
146 | IRRAYPDANLLNHRVLRAMLKAEE | 2.2
147 | IRRAYPDANLLNNRVLRAMLKAEE | 2.02
148 | IRRAYPDANLLNTRVLRAMLKAEE | 2.52
149 | IRRAYPDANLLNARVLRAMLKAEE | 2.28
150 | IRRAYPDANLLNLRVLRAMLKAEE | 2.02
151 | IRRAYPDANLLNKRVLRAMLKAEE | 2.45
152 | IRRAYPDANLLNVRVLRAMLKAEE | 1.54
153 | IRRAYPDANLLNWRVLRAMLKAEE | 2.35
154 | IRRAYPDANLLNFRVLRAMLKAEE | 2.34
155 | IRRAYPDANLLNQRVLRAMLKAEE | 3.34
156 | IRRAYPDAYLLNDRVLRAMLKAEE | 2.11
157 | IRRAYPDANLWNDRVLRAMLKAEE | 2.02
158 | IRRAYPDANLVNDRVLRAMLKAEE | 2.72
159 | IRRAYPDANLNNDRVLRAMLKAEE | 1.97
160 | IRRAYPDANLKNDRVLRAMLKAEE | 3.33
161 | IRRAYPDANLMNDRVLRAMLKAEE | 1.92
162 | IRRAYPDANLDNDRVLRAMLKAEE | 4.19
163 | IRRAYPDANLENDRVLRAMLKAEE | 3.58
164 | IRRAYPDANLPNDRVLRAMLKAEE | 2.48
165 | IRRAYPDANLGNDRVLRAMLKAEE | 2.84
166 | IRRAYPDANLQNDRVLRAMLKAEE | 3.79
167 | IRRAYPDANLTNDRVLRAMLKAEE | 3.04
168 | IRRAYPDANLCNDRVLRAMLKAEE | 2.69

Row | Variant | protein stability index
169 | IRRAYPDANLFNDRVLRAMLKAEE | 1.75
170 | IRRAYPDANLSNDRVLRAMLKAEE | 3.01
171 | IRRAYPDANLINDRVLRAMLKAEE | 2.43
172 | IRRAYPDANLLNDRVLRAMSKAEE | 3.69
173 | IRRAYPDANLLNDRVLRAMYKAEE | 2.9
174 | IRRAYPDANLLNDRVLRAMWKAEE | 2.32
175 | IRRAYPDANLLNDRVLRAMNKAEE | 3.45
176 | IRRAYPDANLLNDRVLRAMTKAEE | 3.12
177 | IRRAYPDANLLNDRVLRAMKKAEE | 3.25
178 | IRRAYPDANLLNDRVLRAMFKAEE | 2.63
179 | IRRAYPDANLLNDRVLRAMGKAEE | 4.01
180 | IRRAYPDANLLNDRVLRAMQKAEE | 2.58
181 | IRRAYPDANLLNDRVLRAMDKAEE | 4.05
182 | IRRAYPDANLLNDRVLRAMHKAEE | 2.55
183 | IRRAYPDANLLNDRVLRAMRKAEE | 3.03
184 | IRRAYPDANLLNDRVLRAMEKAEE | 4.09
185 | IRRAYPDANLLNDRVLRAMPKAEE | 4.68
186 | IRRAYPDANLLNDRVLRAMAKAEE | 3.3
187 | IRRAYPDANLLNDRVLRAMMKAEE | 2.87
188 | IRRAYPDANLLNDRVLRAMIKAEE | 3.55
